# Measurements reported in patent US20230071371A1 (Scripps Research, published 2023).
# Bridges are numbered along the chain shown (N, C = ends). Where no end group is shown, it is not given here. [ ]: non-standard residue; d: D form. NMeR = CN[C@@H](CCCNC(=N)N)C(=O)O; hArg = N=C(N)NCCCC[C@H](N)C(=O)O; β3hR = N=C(N)NCCC[C@H](N)CC(=O)O; staple K20 = not defined here; staple K4 = not defined here; Nle = CCCC[C@H](N)C(=O)O; L1 = not defined here; L3 = not defined here; L4 = not defined here; L5 = not defined here; Aib = CC(C)(N)C(=O)O
# T1: GPR10 (UniProt P49683 1-370, limits assumed)
# T1 sequence (looked up): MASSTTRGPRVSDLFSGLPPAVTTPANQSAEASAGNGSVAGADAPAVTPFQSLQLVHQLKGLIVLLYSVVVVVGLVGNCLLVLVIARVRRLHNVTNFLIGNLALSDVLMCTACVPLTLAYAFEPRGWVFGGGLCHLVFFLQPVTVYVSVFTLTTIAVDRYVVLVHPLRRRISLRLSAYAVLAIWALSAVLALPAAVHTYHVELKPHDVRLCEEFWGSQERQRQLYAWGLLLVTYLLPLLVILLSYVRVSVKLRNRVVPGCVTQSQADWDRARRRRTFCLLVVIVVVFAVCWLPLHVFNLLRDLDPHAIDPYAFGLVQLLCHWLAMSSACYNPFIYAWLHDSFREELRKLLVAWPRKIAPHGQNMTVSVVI
# Biological target: human GLP-1R (human, UniProt P43220 24-463)
# Assay: cell-based or functional assay
row,Binder,EC50 cAMP 0% FBS
1,Y[Aib]EGTFTSDYSIYKDKQAA[Aib]KFKNWLKAGGPSSGAPPPS (linker 23-27 via staple K4; not fully specified; reading uncertain) [Conjugate 145],61.4 nM
2,Y[Aib]EGTFTSDYSIYKDKQAA[Aib]KFKNWLKAGGPSSGAPPPS (linker 23-27 via staple K20; reading uncertain) [Conjugate 157],16.4 nM

# Biological target: T1, GPR10
# Assay: cell-based or functional assay
row,Binder,GPR10 EC50
1,SRAHQCSMETRTCDINPAWYTGRGIRPVGRF-NH2 (linker 6-13 via L4; reading uncertain) [Conjugate 237],80 nM
2,SRAHQHSMETRTPDICPAWYTGCGIRPVGRF-NH2 (cysteine pairing not given here) [SEQ ID NO 94],70 nM
3,SRAHQHSMETRTPDINPAWYTGRGIRPVGRF-NH2 [SEQ ID NO 107],12 nM
4,SRAHQHSMETRTPDINPCWYTGRGCRPVGRF-NH2 (linker 18-25 via L4; reading uncertain) [Conjugate 249],> 1000 nM
5,SRAHQCSMETRTCDINPAWYTGRGIRPVGRF-NH2 (cysteine pairing not given here) [SEQ ID NO 90],29 nM
6,SRAHQHSMETRTPDICPAWYTGCGIRPVGRF-NH2 (linker 16-23 via L5; reading uncertain) [Conjugate 247],2800 nM
7,SRAHQCSMETRTCDINPAWYTGRGIRPVGRF-NH2 (linker 6-13 via L3; reading uncertain) [Conjugate 236],13 nM
8,SRAHQCSMETRTCDINPAWYTGRGIRPVGRF-NH2 (linker 6-13 via L1; reading uncertain) [Conjugate 226],20 nM
9,SRAHQHSMETRTPDCNPAWYTCRGIRPVGRF-NH2 (linker 15-22 via L5; reading uncertain) [Conjugate 244],230 nM
10,SRAHQHSMETRTPDINPCWYTGRGCRPVGRF-NH2 (linker 18-25 via L1; reading uncertain) [Conjugate 231],18 nM
11,SRAHQCSMETRTCDINPAWYTGRGIRPVGRF-NH2 (linker 6-13 via L5; reading uncertain) [Conjugate 238],260 nM
12,SRAHQHSMETRTPDINPCWYTGRGCRPVGRF-NH2 (cysteine pairing not given here) [SEQ ID NO 95],33 nM
13,SRAHQHSMETRTPDICPAWYTGCGIRPVGRF-NH2 (linker 16-23 via L4; reading uncertain) [Conjugate 246],360 nM
14,SRAHQHSMETRTPDICPAWYTGCGIRPVGRF-NH2 (linker 16-23 via L3; reading uncertain) [Conjugate 245],23 nM
15,SRAHQHSMETRTPDINPCWYTGRGCRPVGRF-NH2 (linker 18-25 via L5; reading uncertain) [Conjugate 250],> 1000 nM
16,SRAHQHSMETRTPDINPAWCTGRGIRCVGRF-NH2 (linker 20-27 via L1; reading uncertain) [Conjugate 232],130 nM
17,SRAHQHSMETRTPDCNPAWYTCRGIRPVGRF-NH2 (linker 15-22 via L4; reading uncertain) [Conjugate 243],80 nM
18,SRAHQHSMETRTPDICPAWYTGCGIRPVGRF-NH2 (linker 16-23 via L1; reading uncertain) [Conjugate 230],29 nM
19,SRAHQHSMETRTPDINPAWCTGRGIRCVGRF-NH2 (cysteine pairing not given here) [SEQ ID NO 96],920 nM
20,SRAHQHSMETRTPDINPCWYTGRGCRPVGRF-NH2 (linker 18-25 via L3; reading uncertain) [Conjugate 248],7.5 nM

# Biological target: T1, GPR10
# Assay: cell-based or functional assay
# Remark: another data set of the same source
row,Binder,GPR10 EC50
1,SRAHQCS[Nle]ETRTCDINPAWYTGRGIRPVG[NMeR]F-NH2 (cysteine pairing not given here) [SEQ ID NO 102],100 nM
2,SRAHQCSMETRTCDINPAWYTGRGIRPVGRF-NH2 (linker 6-13 via L4; reading uncertain) [Conjugate 237],80 nM
3,SRAHQCS[Nle]ETRTCDINPAWYTG[hArg]GIRPVGRF-NH2 (cysteine pairing not given here) [SEQ ID NO 97],17 nM
4,SRAHQHSMETRTPDINPAWYTGRGIRPVGRF-NH2 [SEQ ID NO 107],12 nM
5,SRAHQCS[Nle]ETRTCDINPAWYTG[β3hR]GIRPVGRF-NH2 (linker 6-13 via L4; reading uncertain) [Conjugate 260],60 nM
6,SRAHQCSMETRTCDINPAWYTGRGIRPVGRF-NH2 (cysteine pairing not given here) [SEQ ID NO 90],29 nM
7,SRAHQCSMETRTCDINPAWYTGRGIRPVGRF-NH2 (linker 6-13 via L3; reading uncertain) [Conjugate 236],13 nM
8,SRAHQCS[Nle]ETRTCDINPAWYTGRGIRPVG[NMeR]F-NH2 (linker 6-13 via L1; reading uncertain) [Conjugate 254],100 nM
9,SRAHQCS[Nle]ETRTCDINPAWYTGRGIRPVG[NMeR]F-NH2 (linker 6-13 via L3; reading uncertain) [Conjugate 258],10 nM
10,SRAHQCSMETRTCDINPAWYTGRGIRPVGRF-NH2 (linker 6-13 via L1; reading uncertain) [Conjugate 226],20 nM
11,SRAHQCS[Nle]ETRTCDINPAWYTG[NMeR]GIRPVGRF-NH2 (linker 6-13 via L5; reading uncertain) [Conjugate 265],160 nM
12,SRAHQCSMETRTCDINPAWYTGRGIRPVGRF-NH2 (linker 6-13 via L5; reading uncertain) [Conjugate 238],260 nM
13,SRAHQCS[Nle]ETRTCDINPAWYTG[NMeR]GIRPVGRF-NH2 (linker 6-13 via L4; reading uncertain) [Conjugate 261],120 nM
14,SRAHQCS[Nle]ETRTCDINPAWYTGRGIRPVG[hArg]F-NH2 (cysteine pairing not given here) [SEQ ID NO 100],> 200 nM
15,SRAHQCS[Nle]ETRTCDINPAWYTG[β3hR]GIRPVGRF-NH2 (cysteine pairing not given here) [SEQ ID NO 98],13 nM
16,SRAHQCS[Nle]ETRTCDINPAWYTG[β3hR]GIRPVGRF-NH2 (linker 6-13 via L3; reading uncertain) [Conjugate 256],5.1 nM
17,SRAHQCS[Nle]ETRTCDINPAWYTGRGIRPVG[NMeR]F-NH2 (linker 6-13 via L4; reading uncertain) [Conjugate 262],280 nM
18,SRAHQCS[Nle]ETRTCDINPAWYTG[NMeR]GIRPVGRF-NH2 (linker 6-13 via L1; reading uncertain) [Conjugate 253],34 nM
19,SRAHQCS[Nle]ETRTCDINPAWYTG[β3hR]GIRPVGRF-NH2 (linker 6-13 via L5; reading uncertain) [Conjugate 264],81 nM
20,SRAHQCS[Nle]ETRTCDINPAWYTGRGIRPVG[β3hR]F-NH2 (cysteine pairing not given here) [SEQ ID NO 101],> 200 nM
21,SRAHQCS[Nle]ETRTCDINPAWYTG[β3hR]GIRPVGRF-NH2 (linker 6-13 via L1; reading uncertain) [Conjugate 252],16 nM
22,SRAHQCS[Nle]ETRTCDINPAWYTG[NMeR]GIRPVGRF-NH2 (cysteine pairing not given here) [SEQ ID NO 99],44 nM
23,SRAHQCS[Nle]ETRTCDINPAWYTGRGIRPVG[NMeR]F-NH2 (linker 6-13 via L5; reading uncertain) [Conjugate 266],1100 nM
24,SRAHQCS[Nle]ETRTCDINPAWYTG[NMeR]GIRPVGRF-NH2 (linker 6-13 via L3; reading uncertain) [Conjugate 257],8.8 nM
